# From the supplement of paper PMC12764529
# ± gives the half width of the 95% confidence interval.
# How the values were obtained:
# [1] = folding stability dG unfold from trypsin proteolysis; higher = more stable
# Procedure, shortened: (§1)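 Sequencing followed digestion of designed mini-proteins with trypsin and chymotrypsin, each at 11 concentrations in threefold dilutions together with a no-protease condition. The mini-proteins were under 80 residues, had no cysteine, sat in a PA-tagged cDNA display construct, and were kept only if AlphaFold2 dimer inter-PAE was above 15. From the counts, Bayesian fitting gave K50, and unfolding free energy was derived against a sequence-predicted unfolded-state K50 and a shared folded-state K50, per protease or combined.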
# [2] = folding stability dG unfold from chymotrypsin proteolysis; higher = more stable
# Procedure, shortened: as §1
# [3] = folding stability dG unfold (combined trypsin and chymotrypsin); higher = more stable
# Procedure, shortened: as §1
sequence,measurement,setting,value
SAGGSAGGSMALPPDLEVRITERTVSPDGSTTTYTVERPDGTTVTLTSEAELAALRESGVVLESAGGSAGGS [r12_455_JUSTAS],folding stability dG unfold,[1],0.227 ± 0.086 kcal/mol
same,folding stability dG unfold,[2],-0.137 ± 0.15 kcal/mol
same,folding stability dG unfold,[3],0.145 ± 0.089 kcal/mol
SAGGSAGGSMDGTVRQPPGGVWEVRARPPAVTPVLVTVVLVTVDADGNLILNPVAGYTHPDELSAGGSAGGS [r12_1027_TrMRF],folding stability dG unfold,[1],0.359 ± 0.032 kcal/mol
same,folding stability dG unfold,[2],1.11 ± 0.074 kcal/mol
same,folding stability dG unfold,[3],0.848 ± 0.077 kcal/mol
SAGGSAGGSMEENKPVVTLTTVEIYIESEVDPSLGKPLNPKKITVTLTTTVPPDGSTSTSTLFSAGGSAGGS [r12_438_JUSTAS],folding stability dG unfold,[1],1.11 ± 0.17 kcal/mol
same,folding stability dG unfold,[2],1.67 ± 0.17 kcal/mol
same,folding stability dG unfold,[3],1.45 ± 0.19 kcal/mol
SAGGSAGGSMEEVEVFELEDGTLLVLVRVDGKEELIEIPLDDLKKLPNVKEVKIFPVKKVEKPSAGGSAGGS [r12_343_TrROS_Hall],folding stability dG unfold,[1],0.803 ± 0.052 kcal/mol
same,folding stability dG unfold,[2],1.43 ± 0.057 kcal/mol
same,folding stability dG unfold,[3],1.21 ± 0.086 kcal/mol
SAGGSAGGSMEFVEIEIEKELETEVSPDGTTTTRYRVPDGSILVVTTTHPPDGVPTPTVTLVASAGGSAGGS [r20_240_JUSTAS],folding stability dG unfold,[1],1.16 ± 0.021 kcal/mol
same,folding stability dG unfold,[2],0.944 ± 0.075 kcal/mol
same,folding stability dG unfold,[3],1.08 ± 0.045 kcal/mol
SAGGSAGGSMEIIGSFTFPNPNGMNIKVNVYRNPEEKKWWAKVEIWDGGKPKTHTMPLDDFLKSAGGSAGGS [r12_1063_TrROS],folding stability dG unfold,[1],1.23 ± 0.042 kcal/mol
same,folding stability dG unfold,[2],2.06 ± 0.088 kcal/mol
same,folding stability dG unfold,[3],1.73 ± 0.1 kcal/mol
SAGGSAGGSMEIIPPEELLARLSPEELVLVRLPTAPRLLPREELRLLPRDIPVEVEVIPRLPPSAGGSAGGS [r12_501_TrMRF],folding stability dG unfold,[1],0.496 ± 0.23 kcal/mol
same,folding stability dG unfold,[2],2.24 ± 0.1 kcal/mol
same,folding stability dG unfold,[3],1.5 ± 0.46 kcal/mol
SAGGSAGGSMEIPANIPIEEFAALIKKKGNFEVKKVGPKTFVIVSKDNKKPLVVKFDAKPGLDSAGGSAGGS [r20_236_TrMRF],folding stability dG unfold,[1],-0.035 ± 0.064 kcal/mol
same,folding stability dG unfold,[2],0.261 ± 0.15 kcal/mol
same,folding stability dG unfold,[3],0.183 ± 0.076 kcal/mol
SAGGSAGGSMEIVVPVKNPEELKAVAEELEKKGYKVEKLPDGSLKVEKPGSVIYIKGDPVPPLSAGGSAGGS [r12_204_JUSTAS],folding stability dG unfold,[1],1.52 ± 0.074 kcal/mol
same,folding stability dG unfold,[2],1.49 ± 0.06 kcal/mol
same,folding stability dG unfold,[3],1.45 ± 0.14 kcal/mol
SAGGSAGGSMEPIDLSIVEIKEELLPSGKKKYIVTIETPGKKVKKYTFPPDISIEDIKKLILNSAGGSAGGS [r20_115_JUSTAS],folding stability dG unfold,[1],2.17 ± 0.11 kcal/mol
same,folding stability dG unfold,[2],2.881 ± 0.026 kcal/mol
same,folding stability dG unfold,[3],2.69 ± 0.12 kcal/mol
SAGGSAGGSMGLNVTYTVNVTHPDGTVETFPFEFDGTPEEAEEFARAIAEAHPDVKVTVTPGASAGGSAGGS [r12_268_TrMRF],folding stability dG unfold,[1],3.06 ± 0.12 kcal/mol
same,folding stability dG unfold,[2],3.06 ± 0.037 kcal/mol
same,folding stability dG unfold,[3],3.05 ± 0.076 kcal/mol
SAGGSAGGSMGLVVRREDGTLVLFRLGEDGLEEFTVPLEDWLTVPEEFFDAIPPEEVDEATPESAGGSAGGS [r12_793_TrMRF],folding stability dG unfold,[1],1.4 ± 0.15 kcal/mol
same,folding stability dG unfold,[2],1.9 ± 0.092 kcal/mol
same,folding stability dG unfold,[3],1.69 ± 0.12 kcal/mol
SAGGSAGGSMGYLTEPDISVTRTPDGTVTVTTTNTTYDPSTGKKLSTTTTTTTVTLAPDEELLSAGGSAGGS [r12_1038_JUSTAS],folding stability dG unfold,[1],0.603 ± 0.056 kcal/mol
same,folding stability dG unfold,[2],0.628 ± 0.052 kcal/mol
same,folding stability dG unfold,[3],0.735 ± 0.11 kcal/mol
SAGGSAGGSMIGTADGTPVPFEVTHAEVYEVTLPNGEKYYLIKAYDPSTGKYFVALIPAKDIASAGGSAGGS [r12_823_TrMRF],folding stability dG unfold,[1],2.77 ± 0.11 kcal/mol
same,folding stability dG unfold,[2],2.84 ± 0.052 kcal/mol
same,folding stability dG unfold,[3],2.8 ± 0.1 kcal/mol
SAGGSAGGSMIVETEVEEGDGSAVTKTFYPDSVTTTVNTPDEVTVEKTFPDGTVETTTVPLSPSAGGSAGGS [r12_507_JUSTAS],folding stability dG unfold,[1],0.607 ± 0.028 kcal/mol
same,folding stability dG unfold,[2],0.967 ± 0.031 kcal/mol
same,folding stability dG unfold,[3],0.896 ± 0.086 kcal/mol
SAGGSAGGSMKIKIEVDKETGYIVIEAEPGETIEIEIGGKKIKMEVIENEDGSLYFVFKIEKPSAGGSAGGS [r12_970_TrROS_Hall],folding stability dG unfold,[1],2.23 ± 0.12 kcal/mol
same,folding stability dG unfold,[2],4.06 ± 0.085 kcal/mol
same,folding stability dG unfold,[3],3.6 ± 0.24 kcal/mol
SAGGSAGGSMKIKPGQVVKIKVEKDGKIYEFEAKIDPKTGKLVEIKSAEELKGLKIKEIEIVPSAGGSAGGS [r12_6_TrROS_Hall],folding stability dG unfold,[1],1.14 ± 0.027 kcal/mol
same,folding stability dG unfold,[2],2.274 ± 0.016 kcal/mol
same,folding stability dG unfold,[3],1.99 ± 0.062 kcal/mol
SAGGSAGGSMKIRIERTPDKLTIMIPPDNPDKIKNIIDNFGYPITDVKVTQNPPGMHMIEIPLSAGGSAGGS [r12_493_TrROS],folding stability dG unfold,[1],1.58 ± 0.095 kcal/mol
same,folding stability dG unfold,[2],1.47 ± 0.082 kcal/mol
same,folding stability dG unfold,[3],1.51 ± 0.19 kcal/mol
SAGGSAGGSMKIVIVVDEDGSVRVRIEETGEEITFPKGMTAEEIAELLKKKFPNLEVEIVEVPSAGGSAGGS [r12_423_TrROS_Hall],folding stability dG unfold,[1],4.28 ± 0.19 kcal/mol
same,folding stability dG unfold,[2],3.09 ± 0.12 kcal/mol
same,folding stability dG unfold,[3],3.76 ± 0.24 kcal/mol
SAGGSAGGSMKKITLTLTFPNGTTETLDITPLLEKSGLSPEEAIQLLKEELPENVTYKVTTEGSAGGSAGGS [r12_399_JUSTAS],folding stability dG unfold,[1],2.69 ± 0.083 kcal/mol
same,folding stability dG unfold,[2],3.152 ± 0.03 kcal/mol
same,folding stability dG unfold,[3],3.01 ± 0.084 kcal/mol
SAGGSAGGSMKPGEKVKVEIVSYDEKTKELTIKITYGPKKTKTITIKPKTKEEALEQLKKLLKSAGGSAGGS [r20_167_TrROS_Hall],folding stability dG unfold,[1],1.93 ± 0.17 kcal/mol
same,folding stability dG unfold,[2],3.14 ± 0.051 kcal/mol
same,folding stability dG unfold,[3],2.6 ± 0.27 kcal/mol
SAGGSAGGSMKPVVDSKADPTSGPEKTLTLTLGDETVTHTVSSSESLTIPLPPNSTVSFEPLGSAGGSAGGS [r12_373_JUSTAS],folding stability dG unfold,[1],0.791 ± 0.021 kcal/mol
same,folding stability dG unfold,[2],1.11 ± 0.02 kcal/mol
same,folding stability dG unfold,[3],1.03 ± 0.042 kcal/mol
SAGGSAGGSMKTEVTVDEEGKYTVTVTPPDGSTVNLVVPPGDPAAAVAAAKAAGLEVEDIKAASAGGSAGGS [r12_891_JUSTAS],folding stability dG unfold,[1],0.0357 ± 0.061 kcal/mol
same,folding stability dG unfold,[2],-0.241 ± 0.15 kcal/mol
same,folding stability dG unfold,[3],-0.21 ± 0.27 kcal/mol
SAGGSAGGSMKTIELPNGMKITVEKDEETGVYTITITFPDGSKKTITVPKGTSLEDLVIEIKPSAGGSAGGS [r12_261_TrROS_Hall],folding stability dG unfold,[1],2.54 ± 0.095 kcal/mol
same,folding stability dG unfold,[2],4.38 ± 0.21 kcal/mol
same,folding stability dG unfold,[3],4.04 ± 0.13 kcal/mol
SAGGSAGGSMKTTLLAEKELPDGTRVELTRVESPGSLTYEVVTVSPEGTEVRTLPPDELPYLLSAGGSAGGS [r12_315_JUSTAS],folding stability dG unfold,[1],1.22 ± 0.082 kcal/mol
same,folding stability dG unfold,[2],0.399 ± 0.23 kcal/mol
same,folding stability dG unfold,[3],0.912 ± 0.15 kcal/mol
SAGGSAGGSMKTVEITIPFYSTTTDPVPSLGLLKTYLEEPEIKLKISPEEYKKLKKTPILKELSAGGSAGGS [r12_1015_JUSTAS],folding stability dG unfold,[1],-0.229 ± 0.33 kcal/mol
same,folding stability dG unfold,[2],0.412 ± 0.26 kcal/mol
same,folding stability dG unfold,[3],0.234 ± 0.27 kcal/mol
SAGGSAGGSMKVYRIKIEVDGKTYEIEVEMSEEEVKKLAEELGIKDVKIKKVEIEPVEEVEEKSAGGSAGGS [r12_292_TrROS_Hall],folding stability dG unfold,[1],0.859 ± 0.18 kcal/mol
same,folding stability dG unfold,[2],2.07 ± 0.1 kcal/mol
same,folding stability dG unfold,[3],1.92 ± 0.21 kcal/mol
SAGGSAGGSMKWTSIASYPHPDMVVHVIKFEGGGELTFPAPFEDLVEIAEKFDLDLEFTGDHPSAGGSAGGS [r12_676_TrMRF],folding stability dG unfold,[1],0.45 ± 0.072 kcal/mol
same,folding stability dG unfold,[2],0.28 ± 0.11 kcal/mol
same,folding stability dG unfold,[3],0.447 ± 0.11 kcal/mol
SAGGSAGGSMNTTTTPTAVPAGATLTVTVTSSSKSYSVPPAGPVTVTTTSGSSGTTVTVDVVASAGGSAGGS [r12_919_JUSTAS],folding stability dG unfold,[1],0.314 ± 0.022 kcal/mol
same,folding stability dG unfold,[2],0.618 ± 0.051 kcal/mol
same,folding stability dG unfold,[3],0.53 ± 0.043 kcal/mol
SAGGSAGGSMPAGVLVTVTITITKPGKPETLDELDVTVAEGDLDALEEEFAEKYPGLEVTVVRSAGGSAGGS [r12_21_JUSTAS],folding stability dG unfold,[1],0.818 ± 0.08 kcal/mol
same,folding stability dG unfold,[2],1.92 ± 0.089 kcal/mol
same,folding stability dG unfold,[3],1.6 ± 0.1 kcal/mol
SAGGSAGGSMPDLRPAPVPALVIPLDLPLEEAIEKARELLDLPEDTEIPIAEFDPETGKIVIASAGGSAGGS [r12_815_TrMRF],folding stability dG unfold,[1],0.533 ± 0.024 kcal/mol
same,folding stability dG unfold,[2],1.94 ± 0.051 kcal/mol
same,folding stability dG unfold,[3],1.57 ± 0.039 kcal/mol
